In patent publication EP4792886A2, “CNP PRODRUGS” (Ascendis Pharma Growth Disorders A/S, priority 2015, dated 2016):
Bridges are numbered along the chain shown (N, C = ends). Where no end group is shown, it is not given here. The star is where a group is joined. Hexanoyl(6-maleimido) = O=C1C=CC(=O)N1CCCCCC(=O)*

How the values were obtained:
recombinant human NEP = recombinant human NEP (Homo sapiens, UniProt P08473); conditions: pH 7.4
Text: Samples were taken at different time intervals. […] The resulting reaction products were assigned using HPLC-MS.

wild-type FVB male mice = experiment: Growth study in FVB mice after 5 weeks treatment, daily subcutaneous bolus injection or continuous subcutaneous infusion; assay type: in vivo; conditions: 50 nmol/kg/d, d 35
Method: This study was performed in order to test the effect of daily subcutaneous bolus injection vs. continuous subcutaneous infusion of CNP-38 on animal growth. 21- to 22-days-old wild-type FVB male mice (n = 9/group) were given 50 nmol/kg/d CNP-38 or vehicle (30 mM acetate pH 4 containing 5 % sucrose and 1 % benzylic alcohol) either by daily subcutaneous bolus injection or by continuous subcutaneous infusion in the scapular region over 35 days. Continuous infusion was applied by Alzet osmotic pumps model 1002 for week 1-2, followed by model 1004 for week 3-5. CNP-38 concentrations in the pumps were adjusted for the mean animal weight at study day 7 (pump model 1002) or study day 25 (pump model 1004). Growth was determined at d 35 by total body length measurement and X-ray measurements of the right femur and tibia.

[1] = biological target: T1, natriuretic-peptide receptor B (NPR-B) expressed endogenously on NIH-3T3 cells (Murine Embryo Fibroblast cell … (murine, UniProt Q6VVW5 17-1047)); experiment: cell-based or functional assay
T1 sequence (looked up): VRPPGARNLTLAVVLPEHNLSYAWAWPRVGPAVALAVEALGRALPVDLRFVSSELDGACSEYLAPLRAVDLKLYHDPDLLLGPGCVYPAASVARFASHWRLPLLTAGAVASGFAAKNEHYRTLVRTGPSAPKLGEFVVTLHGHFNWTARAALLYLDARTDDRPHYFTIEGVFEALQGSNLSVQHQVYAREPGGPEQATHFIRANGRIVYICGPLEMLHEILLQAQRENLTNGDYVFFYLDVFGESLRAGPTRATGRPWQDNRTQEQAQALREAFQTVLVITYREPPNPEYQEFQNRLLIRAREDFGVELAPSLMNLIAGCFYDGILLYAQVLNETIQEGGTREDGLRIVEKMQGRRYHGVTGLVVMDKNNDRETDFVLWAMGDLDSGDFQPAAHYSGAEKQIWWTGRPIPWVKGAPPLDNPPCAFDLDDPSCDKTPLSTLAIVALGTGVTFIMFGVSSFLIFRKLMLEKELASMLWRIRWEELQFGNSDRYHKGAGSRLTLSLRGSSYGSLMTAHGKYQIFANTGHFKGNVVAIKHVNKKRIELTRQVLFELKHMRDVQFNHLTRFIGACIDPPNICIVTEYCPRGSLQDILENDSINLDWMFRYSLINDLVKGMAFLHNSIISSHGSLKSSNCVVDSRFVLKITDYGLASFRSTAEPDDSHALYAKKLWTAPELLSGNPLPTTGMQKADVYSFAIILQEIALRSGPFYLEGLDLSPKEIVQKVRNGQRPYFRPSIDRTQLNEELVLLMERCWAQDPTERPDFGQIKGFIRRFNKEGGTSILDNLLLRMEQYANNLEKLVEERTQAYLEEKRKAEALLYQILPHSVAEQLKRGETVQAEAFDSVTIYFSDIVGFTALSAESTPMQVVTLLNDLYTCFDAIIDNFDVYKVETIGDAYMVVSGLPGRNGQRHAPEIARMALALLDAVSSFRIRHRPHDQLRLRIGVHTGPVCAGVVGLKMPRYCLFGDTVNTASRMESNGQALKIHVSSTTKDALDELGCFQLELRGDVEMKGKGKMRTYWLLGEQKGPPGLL

Sequence of recombinant human NEP (P08473 whole entry): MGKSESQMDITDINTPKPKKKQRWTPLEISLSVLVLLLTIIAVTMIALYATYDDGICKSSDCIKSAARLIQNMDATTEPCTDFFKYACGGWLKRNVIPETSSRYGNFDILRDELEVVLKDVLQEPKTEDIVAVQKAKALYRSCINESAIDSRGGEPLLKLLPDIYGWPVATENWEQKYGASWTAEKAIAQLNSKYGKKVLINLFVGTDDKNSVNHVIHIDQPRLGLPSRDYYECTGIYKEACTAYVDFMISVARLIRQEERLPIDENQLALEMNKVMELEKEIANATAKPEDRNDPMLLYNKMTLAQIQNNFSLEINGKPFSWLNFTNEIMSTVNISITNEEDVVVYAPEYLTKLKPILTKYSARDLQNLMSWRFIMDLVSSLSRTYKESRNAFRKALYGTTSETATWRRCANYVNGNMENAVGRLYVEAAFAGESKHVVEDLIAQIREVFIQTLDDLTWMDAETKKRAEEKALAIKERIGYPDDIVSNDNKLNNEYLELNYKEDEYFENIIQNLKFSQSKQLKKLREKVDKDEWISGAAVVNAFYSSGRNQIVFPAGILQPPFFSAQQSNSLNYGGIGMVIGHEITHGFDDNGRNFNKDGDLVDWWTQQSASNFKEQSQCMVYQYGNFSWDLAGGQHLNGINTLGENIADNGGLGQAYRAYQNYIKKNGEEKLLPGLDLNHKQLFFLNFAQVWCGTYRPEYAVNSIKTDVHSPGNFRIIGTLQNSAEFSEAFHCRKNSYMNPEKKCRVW

CNP-38: CNP-38 SEQ ID No:24, LQEHPNARKYKGANKKGLSKGCFGLKLDRIGSMSGLGC, obtained from CASLO ApS (disulfide 22-38)
half life norm. (recombinant human NEP): 12.10 h | total body lenght compared to vehicle treated animals (wild-type FVB male mice; continuous subcutaneous infusion): 121.7% | total body lenght compared to vehicle treated animals (wild-type FVB male mice; daily subcutaneous bolus injection): 110.2%

B1: permanent N-terminal CNP-38 PEG 5kDa conjugate 15e (peptide)
peptide: {PEG 5 kDa-Hexanoyl(6-maleimido)}-LQEHPNARKYKGANKKGLSKGCFGLKLDRIGSMSGLGC
modifications: disulfide 22-38
Residual Activity [%] (cGMP TR-FRET in NIH-3T3 cells, by EC50 against non-PEGylated CNP-38) [1]: 14%

B2: permanent Lys26 CNP-38 PEG 5 kDa conjugate 19e (peptide)
peptide: LQEHPNARKYKGANKKGLSKGCFGLKLDRIGSMSGLGC
modifications: 5 kDa PEG stably attached at the side chain of Lys26 through a maleimido hexanoyl group; disulfide bridge between Cys22 and Cys38
Residual Activity [%] (cGMP TR-FRET in NIH-3T3 cells, by EC50 against non-PEGylated CNP-38) [1]: < 1%

B3: permanent Lys26 CNP-38 PEG4x10 kDa conjugate 12g (peptide)
peptide: LQEHPNARKYKGANKKGLSKGCFGLKLDRIGSMSGLGC
modifications: disulfide 22-38; not fully specified (residue 26)
Residual Activity [%] (cGMP TR-FRET in NIH-3T3 cells, by EC50 against non-PEGylated CNP-38) [1]: < 1%
